# Measured values as given in PMC2120824 (The Journal of Cell Biology, 1996).
# T1: Drosophila septin polypeptide Pnut (Drosophila (endogenous in embryos), UniProt P40797 1-539)
# T1 sequence (looked up): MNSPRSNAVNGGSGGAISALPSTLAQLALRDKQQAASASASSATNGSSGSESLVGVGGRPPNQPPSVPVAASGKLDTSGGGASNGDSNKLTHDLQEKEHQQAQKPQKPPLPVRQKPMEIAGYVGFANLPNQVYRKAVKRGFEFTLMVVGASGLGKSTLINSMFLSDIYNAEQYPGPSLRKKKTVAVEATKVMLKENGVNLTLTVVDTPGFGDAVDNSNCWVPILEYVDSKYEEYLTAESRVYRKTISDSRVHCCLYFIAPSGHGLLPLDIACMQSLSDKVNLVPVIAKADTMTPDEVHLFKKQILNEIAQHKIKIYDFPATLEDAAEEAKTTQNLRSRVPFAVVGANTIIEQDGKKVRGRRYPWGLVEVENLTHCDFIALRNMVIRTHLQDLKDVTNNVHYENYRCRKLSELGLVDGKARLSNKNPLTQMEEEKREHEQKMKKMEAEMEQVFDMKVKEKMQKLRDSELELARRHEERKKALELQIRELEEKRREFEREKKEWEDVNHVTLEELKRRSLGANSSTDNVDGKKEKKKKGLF
# Target: T1, Drosophila septin polypeptide Pnut
# Assay: co-IP
row,Binder,stoichiometry N
1,"Drosophila septin polypeptide Sep2 (natural protein, Drosophila (endogenous in embryos), UniProt P54359 1-419, looked up) MSVEVDFVDKKEVHLRTLKQSGHVGFDSLPDQLVNKSVQNGFVFNVMCIGETGLGKSTLMDTLFNTSFESTPSPHTLPSVKLKAHTYELQESNVRLKLTICDTVGYGDQINKDDSFKAVVDYIDAQFENYLQEELKIKRSLVTCHDSRIHICLYFICPTGHGLKSLDLVCMKKLDSKVNIIPVIAKADTISKVELQRFKAKIIQELNANGVHIYQFPTDDETVAETNTSMNSHIPFAVVGSTEFIKVGNKLIRARQYPWGTVQVENETHCDFVKLREMLIRTNMEDMREKTHTRHYELYRQKRLEQMGFSDVDSDNKPISFQQTFEAKRSNHLAELQSKEEEVRQMFVQRVKEKEAELKESEKDLHAKFEKLKRDHAEEKRKLEESRKALEEDYLDFQRRKQQLATAHHTLTLGKSKKK",~1
2,"Drosophila septin polypeptide Sep1 (natural protein, Drosophila (endogenous in embryos), UniProt P42207 1-361, looked up) MADTKGFSSIETPGYVGFANLPNQVHRKSVKKGFEFTLMVVGESGLGKSTLVNSLFLTDLYPERIIPDAIEKQKQTVKLEASTVEIEERGVKLRLTVVDTPGFGDAIDNSNSFGAILEYIDEQYERFLRDESGLNRRNIVDNRIHCCFYFISPFGHGLKPLDVEFMKKLHSKVNIVPVIAKADCLTKKEILRLKCRIMQEIESHGIKIYPLPDCDSDEDEDYKEQVKQLKEAVPFAVCGANTLLEVKGKKVRGRLYPWGVVEVENPDHCDFIKLRTMLITHMQDLQEVTQEVHYENYRSDRLAKGIKGKENGVKAERDSSSQVVSNSVLGEKDRILQEKEAELRRMQEMLAQMQARMQAQQ",~1
